T1: huNotch2-EGF6-10 (human, UniProt Q04721 219-418)
T1 construct: also called human Notch2 EGF6-10
T1 sequence: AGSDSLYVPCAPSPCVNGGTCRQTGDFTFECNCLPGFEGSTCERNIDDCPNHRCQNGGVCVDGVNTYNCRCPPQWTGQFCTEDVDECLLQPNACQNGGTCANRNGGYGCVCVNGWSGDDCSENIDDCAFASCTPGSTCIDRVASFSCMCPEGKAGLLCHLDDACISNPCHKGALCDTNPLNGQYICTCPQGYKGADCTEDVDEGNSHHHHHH

B1: rb.2430 (rabbit/human chimeric anti-Notch2 antibody 2430) (antibody, V domains shown)
VH: QSVEESGGRLVTPGTPLTLTCTVSGFSLSSYDMSWVRQAPGKGLEWIGIIQAGSNTLFYASWAKGRFTISKTSTTVDLKITSPTTEDTATYFCARGGVIFIIGHFNLWGPGTLVTVSS
VL: AQVLTQTASSVSAAVGGTVTINCQASQSVVNNRLAWYQQKPGQPPKLLMYGASTLESGVSSRFKGSGSGTQFTLTISGVQCDDAATYYCQGEFLCSSGDCVAFGGGTKVEIK
B2: rat.1B2 (rat/human chimeric anti-Notch2 antibody 1B2) (antibody, V domains shown)
VH: EVKLVDYGGGLVQPGASLRLSCEVSGFTFSDFYMEWIRQAPGKGLEWIAASRNKANNFSIVYSASVKDRFTISRDTYKSILYLQMSTLKPEDTAVYYCSRDSGRWGLDAWGQGTSVIVSS
VL: DIQMTQSPASLSASLGETVTIQCQTSEDIYSGLAWYHQKPGKSPQLLIYGASRLQDGVPSRFTGSGSGTQYSLKISSMQTEDEGVYFCQQGFKYPLTFGSGTKLEIK
notes: also called 1B2 Chimeric; chimeric 1B2
B3: hu1B2.L1H1.DFS (antibody, V domains shown)
VH: EVQLVESGGGLVQPGGSLKLSCAVSGFTFSDFYMEWIRQASGKGLEWIAASRNKANDFSIVYSASVKDRFTISRDTSKSTLYLQMNSLKTEDTAVYYCSRDSGRWGLDAWGQGTLVTVSS
VL: DIQMTQSPSSVSASVGDRVTITCQTSEDIYSGLAWYQQKPGKSPKLLIYGASRLQDGVPSRFSGSGSGTDYTLTISSLQPEDFATYFCQQGFKYPLTFGGGTKVEIK
notes: Human IgG1 backbone; also called hu1B2.v1.DFS
B4: rb.2338 (rabbit/human chimeric anti-Notch2 antibody 2338) (antibody, V domains shown)
VH: QSLEESGGDLVKPGASLTLTCTASGFSFSSGYDMCWVRQAPGKGLEWIACIYAGSEGFTYYASWAKGRFTISKSSSTTVTLQMTSLTVADTATYFCARWTDSDGSNLWGPGTLVTVSS
VL: DVVMTQTPASVEAAVGGTVTIKCQASQSISSYLAWYQQKPGQPPKLLIYRASKLASGVPSRFSGRGSGTQFTLTISDLECADAATYYCQSNSYGNNWVGGFGGGTKVEIK
B5: rb.2621 (rabbit/human chimeric anti-Notch2 antibody 2621) (antibody, V domains shown)
VH: QSLEESGGGLVQPGASLTLTCTASGFSFSSGYDMCWVRQAPGKGLEWIACIVTVSGNTYYASWAKGRFTISKTSSTTVTLQMTSLTAADTATYFCARDGGFTDTWYFHLWGPGTLVTVSS
VL: AYDMTQTPASVEVAVGGTVTIKCQASESIGSYLAWYQQKPGQPPKLLIYRASTLASGVPSRFKGSGSGTEFTLTISGVQCDDAATYYCQQTYSGAGVDNLFGGGTKVEIK
B6: 1B2.v104.huFab.LC_K149C.dPEG11_dimer (other)
heavy: EVQLVESGGGLVQPGGSLKLSCAVSGFTFSDFYMEWVRQASGKGLEWVAAQRNKANDFSIVYSASVKDRFTISRDDSKSTLYLQMNSLKTEDTAVYYCSRDGGKLALDAWGQGTLVTVSSASTKGPSVFPLAPSSKSTSGGTAALGCLVKDYFPEPVTVSWNSGALTSGVHTFPAVLQSSGLYSLSSVVTVPSSSLGTQTYICNVNHKPSNTKVDKKVEPKSCD
light: DIQMTQSPSSVSASVGDRVTITCQTSEDIYSGLAWYQQKPGKSPKLLIYGASRLQDGVPSRFSGSGSGTDYTLTISSLQPEDFATYYCQQGFKYPLTFGGGTKVEIKRTVAAPSVFIFPPSDEQLKSGTASVVCLLNNFYPREAKVQWCVDNALQSGNSQESVTEQDSKDSTYSLSSTLTLSKADYEKHKVYACEVTHQGLSSPVTKSFNRGEC
modifications: engineered Cys (K149C) joined through maleimide to Bis-Mal-PEG11

These binders were tested against T2, human Notch2 on U-87 MG cells (human, UniProt Q04721 26-2471) (assay: cell-based or functional assay).
T2 sequence (Q04721 26-2471): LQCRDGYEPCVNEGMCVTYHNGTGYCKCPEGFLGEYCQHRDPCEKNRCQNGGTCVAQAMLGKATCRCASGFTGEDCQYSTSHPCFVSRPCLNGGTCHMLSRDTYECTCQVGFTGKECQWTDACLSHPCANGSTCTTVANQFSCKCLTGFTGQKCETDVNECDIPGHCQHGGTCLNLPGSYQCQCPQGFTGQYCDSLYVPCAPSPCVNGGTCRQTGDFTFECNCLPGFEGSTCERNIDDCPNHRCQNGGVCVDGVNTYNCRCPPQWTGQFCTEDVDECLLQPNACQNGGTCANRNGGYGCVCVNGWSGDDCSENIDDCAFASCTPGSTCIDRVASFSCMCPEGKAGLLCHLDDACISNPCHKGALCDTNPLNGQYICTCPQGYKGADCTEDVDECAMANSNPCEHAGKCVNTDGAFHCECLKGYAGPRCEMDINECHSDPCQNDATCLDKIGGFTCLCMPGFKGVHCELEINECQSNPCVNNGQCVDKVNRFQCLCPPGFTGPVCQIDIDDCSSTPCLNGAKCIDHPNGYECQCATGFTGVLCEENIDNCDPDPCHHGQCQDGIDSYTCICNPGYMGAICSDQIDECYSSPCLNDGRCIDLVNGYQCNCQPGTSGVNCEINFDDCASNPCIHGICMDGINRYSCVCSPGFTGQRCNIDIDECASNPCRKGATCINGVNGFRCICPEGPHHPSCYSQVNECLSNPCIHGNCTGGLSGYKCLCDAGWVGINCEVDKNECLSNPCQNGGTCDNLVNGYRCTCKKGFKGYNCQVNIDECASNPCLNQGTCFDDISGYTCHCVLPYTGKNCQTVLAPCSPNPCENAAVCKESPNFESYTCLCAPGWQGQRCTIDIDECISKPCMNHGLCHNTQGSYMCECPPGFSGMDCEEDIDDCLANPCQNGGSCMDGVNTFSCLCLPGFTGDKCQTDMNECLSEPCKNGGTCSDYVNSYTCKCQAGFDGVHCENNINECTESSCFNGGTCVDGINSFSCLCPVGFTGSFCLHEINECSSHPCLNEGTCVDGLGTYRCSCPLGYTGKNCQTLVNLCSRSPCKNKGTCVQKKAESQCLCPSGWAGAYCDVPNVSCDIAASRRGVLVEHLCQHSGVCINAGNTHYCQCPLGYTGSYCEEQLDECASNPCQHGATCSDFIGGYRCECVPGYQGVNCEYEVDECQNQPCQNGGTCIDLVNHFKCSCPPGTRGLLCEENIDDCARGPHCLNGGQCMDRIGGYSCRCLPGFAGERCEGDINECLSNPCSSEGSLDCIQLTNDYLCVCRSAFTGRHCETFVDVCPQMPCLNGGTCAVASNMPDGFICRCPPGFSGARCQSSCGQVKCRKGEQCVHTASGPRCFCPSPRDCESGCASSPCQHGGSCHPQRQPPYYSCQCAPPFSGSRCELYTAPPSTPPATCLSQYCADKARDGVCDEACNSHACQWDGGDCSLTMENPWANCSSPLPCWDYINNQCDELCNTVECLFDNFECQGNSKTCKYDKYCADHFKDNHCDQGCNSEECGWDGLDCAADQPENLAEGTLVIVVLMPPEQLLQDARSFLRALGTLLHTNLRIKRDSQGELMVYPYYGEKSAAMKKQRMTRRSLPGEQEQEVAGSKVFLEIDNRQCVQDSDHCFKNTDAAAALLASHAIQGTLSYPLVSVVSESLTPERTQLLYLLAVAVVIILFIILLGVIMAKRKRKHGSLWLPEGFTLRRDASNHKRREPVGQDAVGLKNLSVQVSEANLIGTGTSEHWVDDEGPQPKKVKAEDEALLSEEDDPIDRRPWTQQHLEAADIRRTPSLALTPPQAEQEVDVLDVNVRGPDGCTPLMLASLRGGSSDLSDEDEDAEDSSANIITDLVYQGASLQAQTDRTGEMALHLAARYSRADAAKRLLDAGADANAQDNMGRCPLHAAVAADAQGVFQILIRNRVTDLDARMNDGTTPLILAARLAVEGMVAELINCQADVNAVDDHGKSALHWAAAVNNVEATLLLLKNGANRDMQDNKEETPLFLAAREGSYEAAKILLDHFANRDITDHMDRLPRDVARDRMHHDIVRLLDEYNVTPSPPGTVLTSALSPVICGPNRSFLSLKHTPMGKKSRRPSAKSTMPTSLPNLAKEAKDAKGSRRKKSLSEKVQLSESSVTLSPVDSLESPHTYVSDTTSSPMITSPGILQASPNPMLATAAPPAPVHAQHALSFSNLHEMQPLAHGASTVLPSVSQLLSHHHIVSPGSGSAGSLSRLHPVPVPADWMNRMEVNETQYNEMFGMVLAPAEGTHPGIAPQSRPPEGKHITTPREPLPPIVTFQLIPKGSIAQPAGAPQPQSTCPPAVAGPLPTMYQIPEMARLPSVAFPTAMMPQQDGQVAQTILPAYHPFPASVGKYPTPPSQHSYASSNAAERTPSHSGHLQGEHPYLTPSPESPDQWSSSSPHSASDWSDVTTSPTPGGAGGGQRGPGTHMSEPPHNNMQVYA

Jagged1 IC50 [nM] | Binder
1.03 | B1
12.5 | B2
7.9 | B3
3.53 | B4
0.667 | B5

Target: T2, human Notch2 on U-87 MG cells
Experiment: cell-based or functional assay
Remark: another data set of the same source

DLL Inhibition (IC50) [µM] | Binder
> 1 | B6

What follows are binders tested against T1, huNotch2-EGF6-10 (assay: SPR BIAcore T200, antibody captured on protein A, 37 C).
Procedure: The binding affinities of the antibodies was determined by BIAcore™ T200 machine. Rabbit antibodies were expressed as chimeric antibodies with rabbit variable domains and human constant domains. Rat antibodies were expressed as chimeric antibodies with rat variable domains and human constant regions. Humanized antibodies were expressed in the human IgG1 backbone. For kinetics measurements, antibodies were captured on research grade protein A chip (GE Healthcare) to achieve approximately 300 RU. Ten-fold serial dilutions of huNotch2-EGF6-10 were injected in HBS-P buffer with additional 3 mM CaCl₂ at 37° C. with a flow rate of 100 μL/min. Association rates (ka) and dissociation rates (kd) were calculated using a 1:1 Langmuir binding model (BIAcore™ T200 Evaluation Software version 2.0). The equilibrium dissociation constant (KD) was calculated as the ratio kd/ka.

Kd [nM] | koff [s⁻¹] | kon [M⁻¹ s⁻¹] | Binder
5.21 | 0.000943 | 181000 | B2
5.15 | 0.00116 | 226000 | B3

— patent publication US20230322958A1 (Genentech, published 2023)
